Reference: patent US20220096653A1, “CONJUGATE COMPRISING LIGAND AND CEACAM5 ANTIBODY FAB FRAGMENT” (ASTELLAS PHARMA INC., priority 2019, published 2022)
Each block holds one binder with its values, some of them ahead of it.

Biological target: T1, CEACAM5 (R&D Systems, 4128-CM-050) (human, UniProt P06731 35-685)
T1 construct: Immobilised on the ELISA plate; also called human CEACAM5
T1 sequence (looked up): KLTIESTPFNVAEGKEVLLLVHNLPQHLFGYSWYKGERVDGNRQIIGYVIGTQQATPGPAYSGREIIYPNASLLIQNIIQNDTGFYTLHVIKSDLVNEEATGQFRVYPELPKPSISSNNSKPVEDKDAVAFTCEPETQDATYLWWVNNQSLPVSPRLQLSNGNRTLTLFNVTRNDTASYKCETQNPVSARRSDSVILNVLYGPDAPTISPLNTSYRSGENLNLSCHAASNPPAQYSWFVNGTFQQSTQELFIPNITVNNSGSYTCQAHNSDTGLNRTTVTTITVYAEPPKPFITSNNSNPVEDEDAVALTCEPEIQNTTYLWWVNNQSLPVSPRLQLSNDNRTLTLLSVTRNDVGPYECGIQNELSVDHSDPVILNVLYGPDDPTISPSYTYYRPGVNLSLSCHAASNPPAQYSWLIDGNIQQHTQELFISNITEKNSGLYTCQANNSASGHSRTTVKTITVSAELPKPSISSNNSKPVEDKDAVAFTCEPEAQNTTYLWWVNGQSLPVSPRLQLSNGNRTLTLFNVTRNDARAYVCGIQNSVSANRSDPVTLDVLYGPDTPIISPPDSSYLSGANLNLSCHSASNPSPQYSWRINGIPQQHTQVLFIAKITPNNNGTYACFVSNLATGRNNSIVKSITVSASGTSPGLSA
Experiment: ELISA on immobilised CEACAM5, 4-parameter fit, duplicate
Method: Each anti-human CEACAM5 antibody Fab fragment conjugate prepared in Example 2 was subjected to ELISA to evaluate the binding activity thereof to CEACAM5. In the present test, a phosphate buffer (Nacalai Tesque Inc., 0.1 mol/L-Phosphate Buffer Solution (pH 7.2)) prepared to 10 mM by diluting 10-fold with distilled water was used as a solvent for an antigen immobilization liquid, and 20×PBS/Tween 20 Buffer (Thermo Fisher Scientific Inc., 28352) diluted 20-fold with distilled water was used as a wash liquid. In addition, for bovine serum albumin (BSA) used in the present test, 30% Bovine Serum Albumin solution (Sigma-Aldrich, Inc., A9576-50ML) was added in an appropriate proportion for use. CEACAM5 (R&D Systems, 4128-CM-050) was diluted with a 10 mM phosphate buffer (pH 7.2) to 0.1 μg/mL, and added to a Nunc MaxiSorp White 384 plate (Nunc, 4603272) at 30 μL per well, and the plate was incubated overnight at 4° C. for immobilization. The CEACAM5 immobilization liquid was removed by reverse centrifugation, and then blocking was carried out by adding a PBS/Tween 20 buffer containing 5.0% BSA. Thereafter, the blocking solution was removed by reverse centrifugation, a solution of each CEACAM5 antibody Fab² fragment conjugate described above or a Fab² fragment having no labeling portion (PB009-01) as a control at about 10000 ng/mL was diluted in 14 steps by 3-fold dilution using a PBS/Tween 20 buffer containing 1.0% BSA, and 30 μL was added per well and incubated at room temperature for 60 minutes. The plate was washed 3 times with a PBS/Tween 20 buffer, and Horseradish Peroxidase (HRP)-labeled goat anti-human IgG (H+L chain) antibody (MBL Life Sciences, 206) diluted 1000-fold using a PBS/Tween 20 buffer containing 5.0% BSA was added at 30 μL per well and incubated at room temperature for 30 minutes. The plate was washed 3 times with a PBS/Tween 20 buffer, and ECL Prime Western Blotting DETECTION Reagent (GE Healthcare, RPN2232) as a substrate was added at 30 μL per well. The substrate was incubated at room temperature for 15 minutes, and then a signal value thereof was measured using an Envision counter (PerkinElmer, Inc.).
The test for each antibody was carried out in duplicate, and an EC₅₀ value was calculated using a 4-parameter logistic curve model.

B3: (Y-S1-X)p-Fab^2 with Y Gd/DOTA, S1 spacer (k), X -Met-Gly-Lys*-Z2(#N)- (Fab, V domains shown)
VH: EVQLVESGGGLVQPGGSLRLSCAASGFNIRDTYMHWVRQAPGKGLEWVARIDPANGNSRYVPKFQGRFTISADTSRNTAYLQMNSLRAEDTAVYYCAPFGYYVSDYAMAYWGQGTLVTVSS
VL: DIQLTQSPSSLSASVGDRVTITCRAGESVDIFGVGFLHWYQQKPGKAPKLLIYRASNLESGIPSRFSGSGSRTDFTLTISSLQPEDFATYYCQQTNEDPYTFGQGTKVEIKR
modifications: labeling may sit on this chain; sites not stated; labeling portion (MW 1296) on amino groups of the Fab, sites and chain not stated; 1-2 per Fab by MS
notes: also called Ex-No 46; conjugate 46
EC50: 0.22 nM

B5: (Y-S1-X)p-Fab^2 with Y Gd/DOTA, S1 spacer (h), X -Met-Gly-Lys*-Z2(#N)- (Fab, V domains shown)
VH: B3 VH
VL: B3 VL
modifications: labeling may sit on this chain; sites not stated; labeling portion (MW 1090) on amino groups of the Fab, sites and chain not stated; 1-2 per Fab by MS
notes: also called Ex-No 43; conjugate 43
EC50: 0.23 nM

B6: [Gd/DOTA]p-Fab^2 (Fab, V domains shown)
VH: B3 VH
VL: B3 VL
modifications: labeling may sit on this chain; sites not stated; [Gd/DOTA] (MW 542) on amino groups of the Fab, sites and chain not stated; 1-2 per Fab by MS
notes: also called Ex-No 47; conjugate 47
EC50: 0.25 nM

B8: (Y-S1-X)p-Fab^2 with Y Gd/4arm-DOTA, S1 -CH2-(1,4-Ph)-NH-C(═S)-, X -Met-Gly-Lys*-Z2(#N)- (Fab, V domains shown)
VH: B3 VH
VL: B3 VL
modifications: labeling may sit on this chain; sites not stated; labeling portion (MW 1121) on amino groups of the Fab, sites and chain not stated; 1 per Fab by MS
notes: also called Ex-No 54; conjugate 54
EC50: 0.23 nM

B10: (Y-S1-X)p-Fab^2 with Y Gd/4arm-DOTA, S1 -CH2-(1,4-Ph)-NH-C(═S)-, X -Gly-Tyr-Lys*-Z2(#N)- (Fab, V domains shown)
VH: B3 VH
VL: B3 VL
modifications: labeling may sit on this chain; sites not stated; labeling portion (MW 1153) on amino groups of the Fab, sites and chain not stated; 1-2 per Fab by MS
notes: also called Ex-No 56; conjugate 56
EC50: 0.26 nM

B11: (Y-S1-X)p-Fab^2 with Y Gd/DOTA, S1 -NH-(CH2CH2O)3-CH-C(═O)-NH-CH2-(1,3-Ph)-C(═O)-, X -Gly-Lys*-C(═S)-NH-(1,4-Ph)-NH-C(═S)- (Fab, V domains shown)
VH: B3 VH
VL: B3 VL
modifications: labeling may sit on this chain; sites not stated; labeling portion (MW 1259) on amino groups of the Fab, sites and chain not stated; 1-3 per Fab by MS
notes: also called Ex-No 44; conjugate 44
EC50: 0.29 nM

B13: (Y-S1-X)p-Fab^2 with Y Gd/DOTA, S1 spacer (i), X -Met -Gly-Lys*-Z2(#N)- (Fab, V domains shown)
VH: B3 VH
VL: B3 VL
modifications: labeling may sit on this chain; sites not stated; labeling portion (MW 1296) on amino groups of the Fab, sites and chain not stated; 1-2 per Fab by MS
notes: also called Ex-No 45; conjugate 45
EC50: 0.23 nM

B14: (Y-S1-X)p-Fab^2 with Y Gd/4arm-DOTA, S1 spacer (n), X -Met-Gly-Lys*-Z2(#N)- (Fab, V domains shown)
VH: B3 VH
VL: B3 VL
modifications: labeling may sit on this chain; sites not stated; labeling portion (MW 1244) on amino groups of the Fab, sites and chain not stated; 1 per Fab by MS
notes: also called Ex-No 58; conjugate 58
EC50: 0.28 nM

The next binders have a lower EC50 than those just listed; values first:

EC50: 0.21 nM
B4: (Y-S1-X)p-Fab^2 with Y Gd/DOTA, S1 spacer (m), X -Met-Gly-Lys*-Z2(#N)- (Fab, V domains shown)
VH: B3 VH
VL: B3 VL
modifications: labeling may sit on this chain; sites not stated; labeling portion (MW 1107) on amino groups of the Fab, sites and chain not stated; 1 per Fab by MS
notes: also called Ex-No 42; conjugate 42

EC50: 0.18 nM
B7: [DFO-C(═O)-CH2O-(1,3-Ph)-C(═O)-Gly-Tyr*-CH2-C(═O)-NH-(CH2)2-Z1(#S)]p-Fab^2 (Fab, V domains shown)
VH: B3 VH
VL: B3 VL
modifications: labeling may sit on this chain; sites not stated; labeling portion (MW 1241) bound via 2-iminothiolane-treated amino groups of the Fab, sites and chain not stated; 1 per Fab by MS; free thiols capped with 2-iodoacetamide
notes: No metal; also called Ex-No 60; Conjugate No. 60

EC50: 0.18 nM
B9: [DFO-C(═O)-(CH2CH2O)4-(1,3-Ph)-C(═O)-Gly-Lys*-Z2(#S)]p-Fab^2 (Fab, V domains shown)
VH: B3 VH
VL: B3 VL
modifications: labeling may sit on this chain; sites not stated; labeling portion (MW 1252) bound via 2-iminothiolane-treated amino groups of the Fab, sites and chain not stated; 1-2 per Fab by MS
notes: No metal; also called Ex-No 61; Conjugate No. 61

EC50: 0.14 nM
B1: (Y-S1-X)p-Fab^2 with Y Gd/DOTA, S1 - (bond), X -Gly-Val-NH-(CH2)2-Z1(#N)- (Fab, V domains shown)
VH: B3 VH
VL: B3 VL
modifications: labeling may sit on this chain; sites not stated; labeling portion (MW 838) on amino groups of the Fab, sites and chain not stated; 1-2 per Fab by MS
notes: also called Ex-No 2; conjugate 2

EC50: 0.14 nM
B12: (Y-S1-X)p-Fab^2 with Y Gd/DOTA, S1 - (bond), X -Gly-Lys*-Z2(#S)- (Fab, V domains shown)
VH: B3 VH
VL: B3 VL
modifications: labeling may sit on this chain; sites not stated; labeling portion (MW 926) on amino groups of the Fab, sites and chain not stated; 1-2 per Fab by MS
notes: also called Ex-No 5; conjugate 5

EC50: 0.13 nM
B2: (Y-S1-X)p-Fab^2 with Y Gd/DOT[A], S1 - (bond), X -Gly-Ile-NH-(CH2)2-Z1(#N)- (Fab, V domains shown)
VH: B3 VH
VL: B3 VL
modifications: labeling may sit on this chain; sites not stated; labeling portion (MW 852) on amino groups of the Fab, sites and chain not stated; 1-3 per Fab by MS
notes: also called Ex-No 3; conjugate 3
